Source: IntAct's records for PubMed 39009827
Values belong to the substance of their own block, whether it stands above or below them.

Assays:
eps15_human EPS15 = eps15_human EPS15 (UniProt P42566)
ima3_human KPNA4 [1] = molecular target: ima3_human KPNA4 (UniProt O00629)
ima3_human KPNA4 [2] = molecular target: ima3_human KPNA4 (UniProt O00629); remark: listed apart in the source
terf1_human TERF1 = terf1_human TERF1 (UniProt P54274)
G3BP2 = G3BP2 (UniProt Q9UN86)
oxsr1_human OXSR1 = oxsr1_human OXSR1 (UniProt O95747)
Sequence of oxsr1_human OXSR1 (O95747 whole entry, looked up): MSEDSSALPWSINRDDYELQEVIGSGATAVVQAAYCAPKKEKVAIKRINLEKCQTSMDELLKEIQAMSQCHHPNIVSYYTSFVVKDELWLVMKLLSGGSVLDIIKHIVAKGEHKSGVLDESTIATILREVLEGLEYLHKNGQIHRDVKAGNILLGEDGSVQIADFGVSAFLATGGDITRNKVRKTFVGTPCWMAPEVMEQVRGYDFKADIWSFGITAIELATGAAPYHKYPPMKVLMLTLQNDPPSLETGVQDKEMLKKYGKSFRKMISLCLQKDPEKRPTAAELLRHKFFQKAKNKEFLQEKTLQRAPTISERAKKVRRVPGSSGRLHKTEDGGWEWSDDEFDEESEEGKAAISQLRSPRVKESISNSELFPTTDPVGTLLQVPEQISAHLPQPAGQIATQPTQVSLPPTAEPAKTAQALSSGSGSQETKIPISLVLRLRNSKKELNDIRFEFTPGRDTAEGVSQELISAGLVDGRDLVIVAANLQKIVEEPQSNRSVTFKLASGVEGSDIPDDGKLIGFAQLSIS

src_human SRC = src_human SRC (UniProt P12931)

Sequence of ima3_human KPNA4 (O00629 whole entry): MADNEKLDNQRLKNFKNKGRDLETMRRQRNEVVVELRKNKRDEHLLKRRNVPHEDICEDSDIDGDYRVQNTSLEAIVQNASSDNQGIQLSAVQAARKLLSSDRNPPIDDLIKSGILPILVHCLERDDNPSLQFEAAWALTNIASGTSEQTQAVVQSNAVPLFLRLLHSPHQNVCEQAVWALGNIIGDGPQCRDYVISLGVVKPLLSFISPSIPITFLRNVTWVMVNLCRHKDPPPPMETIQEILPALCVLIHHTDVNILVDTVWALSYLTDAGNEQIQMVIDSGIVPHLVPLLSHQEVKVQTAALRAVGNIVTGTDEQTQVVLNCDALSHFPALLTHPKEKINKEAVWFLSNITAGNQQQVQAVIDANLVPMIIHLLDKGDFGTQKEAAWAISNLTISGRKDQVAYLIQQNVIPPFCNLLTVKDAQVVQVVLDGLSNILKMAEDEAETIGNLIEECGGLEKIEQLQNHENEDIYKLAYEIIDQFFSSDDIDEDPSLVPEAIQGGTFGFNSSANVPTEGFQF
Sequence of eps15_human EPS15 (P42566 whole entry): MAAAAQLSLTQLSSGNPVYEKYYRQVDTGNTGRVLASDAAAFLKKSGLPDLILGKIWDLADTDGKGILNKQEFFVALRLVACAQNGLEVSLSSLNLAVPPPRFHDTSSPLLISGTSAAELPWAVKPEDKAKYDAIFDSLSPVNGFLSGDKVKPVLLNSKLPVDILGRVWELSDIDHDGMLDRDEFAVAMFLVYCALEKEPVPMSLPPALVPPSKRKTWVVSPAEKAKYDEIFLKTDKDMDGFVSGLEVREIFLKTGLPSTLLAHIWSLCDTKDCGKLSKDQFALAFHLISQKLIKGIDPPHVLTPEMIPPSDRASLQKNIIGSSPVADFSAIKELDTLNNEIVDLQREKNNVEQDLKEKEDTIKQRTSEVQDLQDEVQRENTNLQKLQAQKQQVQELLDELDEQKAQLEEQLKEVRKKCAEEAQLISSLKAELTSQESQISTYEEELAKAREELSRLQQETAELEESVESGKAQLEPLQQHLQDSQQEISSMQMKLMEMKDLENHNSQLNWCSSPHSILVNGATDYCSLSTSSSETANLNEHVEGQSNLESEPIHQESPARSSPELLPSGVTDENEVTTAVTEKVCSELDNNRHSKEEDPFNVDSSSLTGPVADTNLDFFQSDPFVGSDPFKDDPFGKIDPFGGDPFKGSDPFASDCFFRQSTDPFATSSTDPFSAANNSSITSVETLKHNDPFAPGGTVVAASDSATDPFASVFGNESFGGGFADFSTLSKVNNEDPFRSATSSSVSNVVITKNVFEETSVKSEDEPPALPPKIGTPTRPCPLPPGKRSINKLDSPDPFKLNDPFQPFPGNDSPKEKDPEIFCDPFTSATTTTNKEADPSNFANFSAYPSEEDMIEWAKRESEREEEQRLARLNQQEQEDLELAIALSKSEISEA
Sequence of ADP-ribosylation factor-like protein 13B (Homo sapiens), Q3SXY8 N255K (Q3SXY8 whole entry N255K): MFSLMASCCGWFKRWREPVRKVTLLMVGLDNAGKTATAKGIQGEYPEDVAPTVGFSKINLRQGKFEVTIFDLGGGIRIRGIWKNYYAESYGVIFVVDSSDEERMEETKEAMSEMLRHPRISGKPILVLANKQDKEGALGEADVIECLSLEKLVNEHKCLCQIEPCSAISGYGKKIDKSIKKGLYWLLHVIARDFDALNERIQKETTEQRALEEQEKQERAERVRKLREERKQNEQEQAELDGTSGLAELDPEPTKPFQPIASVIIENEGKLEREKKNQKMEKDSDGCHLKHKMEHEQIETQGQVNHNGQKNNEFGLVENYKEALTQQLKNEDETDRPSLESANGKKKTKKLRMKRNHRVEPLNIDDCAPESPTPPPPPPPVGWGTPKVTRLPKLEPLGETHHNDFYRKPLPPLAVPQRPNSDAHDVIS
Sequence of terf1_human TERF1 (P54274 whole entry): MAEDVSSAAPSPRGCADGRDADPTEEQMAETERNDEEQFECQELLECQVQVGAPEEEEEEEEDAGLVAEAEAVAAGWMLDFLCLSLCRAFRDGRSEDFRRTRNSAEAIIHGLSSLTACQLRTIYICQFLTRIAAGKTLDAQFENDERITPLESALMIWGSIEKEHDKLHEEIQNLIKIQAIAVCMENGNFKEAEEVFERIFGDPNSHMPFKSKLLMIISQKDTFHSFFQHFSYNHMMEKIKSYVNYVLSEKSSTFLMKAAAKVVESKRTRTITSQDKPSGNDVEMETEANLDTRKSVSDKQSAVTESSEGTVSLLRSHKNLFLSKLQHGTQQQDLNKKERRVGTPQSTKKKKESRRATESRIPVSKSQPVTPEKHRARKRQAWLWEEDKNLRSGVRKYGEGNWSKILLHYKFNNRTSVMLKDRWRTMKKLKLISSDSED
Sequence of Endothelial PAS domain-containing protein 1 (Homo sapiens), Q99814 F540L (Q99814 whole entry F540L, the tested form may be a part): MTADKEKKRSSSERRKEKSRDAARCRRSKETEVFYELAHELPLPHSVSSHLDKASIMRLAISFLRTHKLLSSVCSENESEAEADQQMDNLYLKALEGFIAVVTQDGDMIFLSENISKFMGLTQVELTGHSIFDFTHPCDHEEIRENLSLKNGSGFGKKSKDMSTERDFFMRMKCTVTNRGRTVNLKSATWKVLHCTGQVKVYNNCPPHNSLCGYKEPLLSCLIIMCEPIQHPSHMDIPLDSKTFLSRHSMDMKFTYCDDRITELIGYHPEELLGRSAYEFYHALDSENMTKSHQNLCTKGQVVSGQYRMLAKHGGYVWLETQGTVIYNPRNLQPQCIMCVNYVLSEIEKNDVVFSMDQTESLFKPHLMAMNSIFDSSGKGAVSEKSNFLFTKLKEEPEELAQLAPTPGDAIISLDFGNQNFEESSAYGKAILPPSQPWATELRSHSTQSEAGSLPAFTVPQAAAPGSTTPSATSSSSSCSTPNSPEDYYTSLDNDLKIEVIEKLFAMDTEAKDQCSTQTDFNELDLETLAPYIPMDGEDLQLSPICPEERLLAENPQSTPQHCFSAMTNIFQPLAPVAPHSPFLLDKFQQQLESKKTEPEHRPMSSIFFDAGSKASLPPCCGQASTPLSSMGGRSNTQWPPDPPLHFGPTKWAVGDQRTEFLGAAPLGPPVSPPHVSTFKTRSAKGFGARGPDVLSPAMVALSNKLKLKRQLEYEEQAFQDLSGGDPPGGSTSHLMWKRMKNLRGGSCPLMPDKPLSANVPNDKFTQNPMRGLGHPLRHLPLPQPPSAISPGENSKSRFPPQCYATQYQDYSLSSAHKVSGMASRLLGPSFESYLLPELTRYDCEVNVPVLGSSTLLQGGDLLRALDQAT
Sequence of G3BP2 (Q9UN86 whole entry): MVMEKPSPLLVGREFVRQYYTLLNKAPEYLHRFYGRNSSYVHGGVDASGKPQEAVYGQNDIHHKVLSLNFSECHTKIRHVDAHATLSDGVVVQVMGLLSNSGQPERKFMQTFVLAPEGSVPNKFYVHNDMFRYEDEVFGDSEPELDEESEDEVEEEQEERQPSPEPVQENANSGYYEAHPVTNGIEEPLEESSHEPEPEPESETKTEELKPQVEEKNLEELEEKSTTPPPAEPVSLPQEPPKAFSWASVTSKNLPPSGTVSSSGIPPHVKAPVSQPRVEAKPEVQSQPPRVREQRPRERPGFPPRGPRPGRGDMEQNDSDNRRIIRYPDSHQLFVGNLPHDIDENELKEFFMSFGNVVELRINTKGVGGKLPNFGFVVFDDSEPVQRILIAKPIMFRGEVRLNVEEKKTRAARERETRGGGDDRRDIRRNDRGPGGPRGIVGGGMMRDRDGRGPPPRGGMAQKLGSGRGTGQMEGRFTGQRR

Substance: ADP-ribosylation factor-like protein 13B (Homo sapiens), Q3SXY8 N255K
effect of a mutation on the interaction (eps15_human EPS15): decreasing interaction strength

Substance: CREB-binding protein (Homo sapiens), Q92793 K13E
effect of a mutation on the interaction (ima3_human KPNA4 [1]): causing an interaction
effect of a mutation on the interaction (ima3_human KPNA4 [2]): disrupting interaction strength

Substance: Histone-lysine N-methyltransferase, H3 lysine-36 specific (Homo sapiens), Q96L73 L1797P
effect of a mutation on the interaction (G3BP2): decreasing interaction strength

Substance: Titin (Homo sapiens), Q8WZ42 I34306S
effect of a mutation on the interaction (oxsr1_human OXSR1): decreasing interaction strength

Substance: Voltage-dependent T-type calcium channel subunit alpha-1H (Homo sapiens), O95180 P684H
effect of a mutation on the interaction (src_human SRC): decreasing interaction strength

Substance: Voltage-dependent T-type calcium channel subunit alpha-1H (Homo sapiens), O95180 P684R
effect of a mutation on the interaction (src_human SRC): decreasing interaction strength

Results, then the substance that gave them:

effect of a mutation on the interaction (terf1_human TERF1): decreasing interaction strength
Substance: Endothelial PAS domain-containing protein 1 (Homo sapiens), Q99814 F540L

effect of a mutation on the interaction (oxsr1_human OXSR1): decreasing interaction strength
Substance: Titin (Homo sapiens), Q8WZ42 I34306N

effect of a mutation on the interaction (oxsr1_human OXSR1): decreasing interaction strength
Substance: Titin (Homo sapiens), Q8WZ42 I34306T
